assay: soluble on expression in E. coli; label from the status in PepcDB or PDB records

| Sequence | soluble on expression in E. coli |
| --- | --- |
| MDKKIIGIDLGGTTIKFAILTTDGVVQQKWSIETNILEDGKHIVPSIIESIRHRIDLYNMKKEDFVGIGMGTPGSVDIEKGTVVGAYNLNWTTVQPVKEQIESALGIPFALDNDANVAALGERWKGAGENNPDVIFITLGTGVGGGIVAAGKLLHGVAGCAGEVGHVTVDPNGFDCTCGKRGCLETVSSATGVVRVARHLSEEFAGDSELKQAIDDGQDVSSKDVFEFAEKGDHFALMVVDRVCFYLGLATGNLGNTLNPDSVVIGGGVSAAGEFLRSRVEKYFQEFTFPQVRNSTKIKLAELGNEAGVIGAASLALQFSKEK | soluble |
| MQQALLDHLRVVTEEEQRILDGVAEVDKDLYTSGKDFTVDSAKMLSEGKLIAVRTHTRFVHFPSHRHNYIEVLYVCQGQLTNIIGGKEVVIHAGELLFLNQYTRHEILPAGEEDIAINFMILPEFFDVAYTMAGNNNVLADFLVNVLRQDEERGEYLHFKVAEVLQIQNLLENMIYSLVTGKGDQNRINQTTMGLIFLYLLESVQYAEMRLPNQYENMIIMTTLDYIEQQYKTATLTELCEKLHLPMHMLSKMIRKNTGFNFKELLQRKRLNKAVELMCETDLPISDIIAAVGYENGSYFHRVFKERYHTTPRAFRVANGKEERVRL | not soluble |
| VLDDEEKIVDLSSSIEKFLDFAPGSLAGVALSEILHPEDYLHFKTALDRQKPHEAVLMFYSRFKTGDGSWLNVEWSLSIKRKPMTDQYEYTIILRKTDNPLF | not soluble |
| GHMSRRSFKNRVLAFFKGYPSFYYPATLVAPVHSAVTSSIMYKVQFDDATMSTVNSNQIKRFFLKKGDVVQSTRLGKIKHTVVKTFRSTNEQLSLIAVDALNNDMVILAHGEIEVTVPISTIYVAPVNIRRFQGRDLSFSTLKDMKFEETSFL | soluble |
| MGSDKIHHHHHHMKKYMRTCSPRLAKEKYCTGCMACSDACTHDAIKIVEKNCMPFVKVDTHKCMNCHLCEKACPIITPVKKNRAEEMNVYGGWANDEQTRIDAASGGGFSGLAQSFFHLHKEDKVAVIGATLANNRVYHQLIEQEKDIVLLTNSKYIQSDTQGIYKEVIERLKTGYWILFSGCPCQIAGLYGFLGKKRDSERLITIEVVCHGIASYEALDLHLKYYNSSRIYRFRDKRHGTQDWKQSQCTTIEQNGEEIKLKRKDDMFYAIYAGWMLDRKSCSNCQFAEINRVADITIADFWGLQVPDYYKQGVSLIIANNNKADTMIKAADAIYTFKESLRTAINGNPHLFTGYKLIQFHPIVMWPDFFRKILPKRIRFKILTNRMPYKLFWALYKLGTIYLVKYQKKQLISKFQKDDNLLKLLNNANRGGGKMA | not soluble |
| MSRTVMCRKYHEELPGLDRPPYPGAKGEDIYNNVSRKAWDEWQKHQTMLINERRLNMMNAEDRKFLQQEMDKFLSGEDYAKADGYVPPSA | soluble |
| MANVSLNKVDKQALVHQPNLLRECFALLVNAHYQTSPNDLLHLLRDDNSSVYLAMDKQNIIGVILTVEEGGLDDELIEAIQLGQRRPKGHLTPITIINQLGLVKVGKLITSRVMRIAVHPDLQGSGIGKRMLTLLEESVGAHVDYLSTSFGATDELIQFWQQAGYQSIRLGTMRDAASGCYSLLMVRQLANKSQ | not soluble |
| MAHHHHHHMTDMHTTLSRVILVAMLHDVADHKYDSDGTLRHRVEAFIKEERNATIETAESHAYALQTIEAVSFSAEKQRGKRWFTSVLPTEWLRVRDIVSDADKLEAIGYAGLLRCLEYTSHLLLPRGKTTEGEQHMKEGGEGRPHWSREFERQCLQNVREHFEEKLNLLPTEYIVTEPGRFLALPRRAEMVEALHQWEENGLPPLS | not soluble |
| MRLNIAPAPWPGAPVVVLSAGLGGGGGYWLAQRAALEEQYQLVSYDHNGTGENAGPLPAGYSLATMAGELFSALQAAGIARFALVGHALGALIGLQLALDRPEAVSALALVNGWLSLSPHTRRCFQVRERLLHAGGAQAWVEAQPLFLYPAEWMAARLPRLEAEDALAISHFQGKENLLKRLQALKQADFSRRASAIACPTLIISAADDLLVPASCSRVLQTAIPGSQLVEMPWGGHACNVTDADTFNTILRDGLSAMLPVARETR | not soluble |
| GPGSMCSGLTAFLVDFVQVVPGQTQTSFQTAAPEDSDPGVYDPNTRSWSGTDGLRYRVPLFPIPSERHTREKVRHVKILMDNCRHICISDELPATKEEKRFWASYRFIQYQLFLAPACVVTPPVYVFFKMFHDKLPHFLRGRTMPILTGLAVAEMWAEATYPSHQLLSMALRAKTPMGDAARAEWTRLQPIDIPFYIFSSYQFQQLFYAVPEEYLFGGDLASLCG | soluble |
| MSLSQKNNNELPKQAAENTLNLNPVIGIRGKDLLTSARMVLLQAVRQPLHSARHVAHFSLELKNVLLGQSELRPGDDDRRFSDPAWSQNPLYKRYMQTYLAWRKELHSWISHSDLSPQDISRGQFVINLLTEAMSPTNSLSNPAAVKRFFETGGKSLLDGLGHLAKDLVNNGGMPSQVDMDAFEVGKNLATTEGAVVFRNDVLELIQYRPITESVHERPLLVVPPQINKFYVFDLSPDKSLARFCLRNGVQTFIVSWRNPTKSQREWGLTTYIEALKEAIEVVLSITGSKDLNLLGACSGGITTATLVGHYVASGEKKVNAFTQLVSVLDFELNTQVALFADEKTLEAAKRRSYQSGVLEGKDMAKVFAWMRPNDLIWNYWVNNYLLGNQPPAFDILYWNNDTTRLPAALHGEFVELFKSNPLNRPGALEVSGTPIDLKQVTCDFYCVAGLNDHITPWESCYKSARLLGGKCEFILSNSGHIQSILNPPGNPKARFMTNPELPAEPKAWLEQAGKHADSWWLHWQQWLAERSGKTRKAPASLGNKTYPAGEAAPGTYVHEREGHHHHHH | soluble |
| AVVITDRQNRIIKVNNEFTRLSGYTFEDVKGKQPSIFASGLHKVEFYMQMWKALQDNGVWEGEVINKRKDGESITEILRIQSIRDEDNVIQFYVASFVDIS | not soluble |
| MSLREINMLRNISSCLFPHISTITSPNHYLSEWDDWEKQGLPEEQRTEAVRRLRACLTSKGHKLDLRALALSSLPVLPACIKKLDVSCNKLTILTDLPENIKELIARDNFLTHISALPHYLITLDVSENQLENLPLLPDTIKSLSAEYNRLSTLPSLPLNLKKLEVRNNELQTLPSLPSNLKILKVAHNHLTELPPLPRRLQLLFAYSNRLSNLPNIQENIIMRRFFYFENNQITTIPTNLFRLDPHITIEIANNPLSDQTLLFLIQQTSVPNFNGPQFRISLSDEGHHHHHH | soluble |
| MTANRQQYQVESVKESNLEEIVQFLIDNFAQTEAILASLKIDDDKICLKELTVMLRDLVQDSLQCSSTCVIRDVTTRQIDGIALACKTSIFDKQIDRLCAYEFREQRVRDAVEFLKYVFNKLDVMYYLNEHRLYKPVFVALVCVRKELWGRGIGTTLMNHVKSAARTDSSDGLISLCSNERGHKLMKTYCPTDFAAVRYDAFKGEHLRPPIVMRPPETFHSVYAMLSKFN | soluble |
| MILVDSDVLIAHLRGVVAARDWLVSARKDGPLAISVVSTAELIGGMRTAERREVWRLLASFRVQPATEVIARRAGDMMRRYRRSHNRIGLGDYLIAATADVQDLQLATLNVWHFPMFEQLKPPFAVPGHRPRA | not soluble |
| MGPKRRQLTFREKSRIIQEVEENPDLRKGEIARRFNIPPSTLSTILKNKRAILASERKYGVASTCRKTNKLSPYDKLEGLLIAWFQQIRAAGLPVKGIILKEKALRIAEELGMDDFTASNGWLDRFRRRRS | soluble |
| TQSLSNTFDSAIDDQLANVDVVMSGEKAPMPRGLIDELREDKDHVAAVAVQGATSAVLATEDRKAIQTGAASPTIGIFYGEGSAATTPEKITSGKEPHEANEVLAPESAAELGIKEGSTVVVVDEAGQREVKVVGTYSTEATAHPGVNLLMGEKAFLDRYQPEFIGTIFVKKADGSSEDVVQYLKDKYPDFKVDTGASLAEELTKTIKKALSFVNY | not soluble |
| MYFRLESQFSINGSMIVLINGAEPSLESHVAFYETGTFTVEQGEMRMIELKYQSTMENIHAFLDVVTGAIDIHLSPCKSQETDIFYSNLAAGSHRIDIDLKTMMDNVSVLLKKNVSKLHKAKR | not soluble |
| MIPRRSCWLILLLNLLNVQSLLDASWWSTVAQLSTALAGHNVKPVCELPGLSPGQAQVCELFKDHMPAVSIGAQNAIQECQRQFTGHRWNCSTHYSTGMLGPIHKMATREAAFTYAILSAGVTHEIGRRCKQGLLTSCGCSDETKPKNVPTDWSWGGCGDNVEYGYKFSRDFIDIREKEHDPKRNHDNGRSLMNRRNNEAGRKILKRHRKPKCKCHGVSGACNMKTCWMQLPSMEQVGKILRNKYDKAIRVQINDRGNLQLLADEATKERKTRALPTDLVFMDDSPDYCRFDRHSGTLGTEGRVCKRGSGGAEGCDSLCCGRGYNTYTQEVKSKCNCKFEWCCKVVCQTCNNVTQVDICK | not soluble |
| MPAISMFYGIVIYLYFYDDERHKIPHIHAKYQGEDASVSIANGEILAGDIPLSKLRLVQAWIEIHRDALMADWALAVNGQPPFAIEPLRLEHHHHHH | not soluble |
| MSPFDYLHFALLLVAPLAVLIGCGGKKKPPPPKSASKMGPPPPAPAPPTAPEATPAAPAPDAAAAAPAEGEKKDGDKKSEKKDGDKKEEEKKDEEKKDGDKKEDDKKDEKKDEDKKDEKKDADEKKDEEKKDDKKDEKKDEKKDEKKEKSKKSKKSSKSKKSKKSKREKKDEDKKEDDKKEDDKKDDKKEDDKKDDEKKDDDKKDDEKKE | not soluble |
| MVTETLSRKADYNANKLRKRLRRLVGTAIADFNMIEKGDRVMVCLSGGKDSYALLDILRNLQAHAPLDFELIAVNLDQKQPGFPEHVLPGYLSEINMPFRIVEQDTYSVVKRVIAEGKTTCSLCSRLRRGVLYRVATELGATKIALGHHRDDILETFFLNMFYGGKLKAMPPKLVSDDGCHVVIRPLAYCKEKDLAAYAWHAQFPIIPCNLCGSQPNLQRQVIKEMMQQWDKKYPGRLETMFTALQNIQLSHLADTSRYDFVGLKPHGIAIEEGDKAFDEEPLSVIPVDMDHDDDSTFEPENEHDGGAVQGGVI | not soluble |
| MGHHHHHHSHQMVNQQQNKFDLRPLMEAVDTVKQKITLLENNDQRLAVLEEETNKHDTHINIHKAQLSKNEERFKLLEGTCYNGKLIWKVTDYKMKKREAVDGHTVSIFSQSFYTSRCGYRLCARAYLNGDGSGRGSHLSLYFVVMRGEFDSLLQWPFRQRVTLMLLDQSGKKNIMETFKPDPNSSSFKRPDGEMNIASGCPRFVAHSVLENAKNAYIKDDTLFLKVAVDLTDLEDL | not soluble |
| MGSDKIHHHHHHMKTVKTHITQLLHAMNKGIFEKEHPIALSLLSAISGESIFFLGPPGVAKSLIARRLKLAFDQSTAFEYLMSRFSTPDEIFGPVSISKLKDEDKYERIIEGYLPSATIVFLDEIWKAGPSIQNSLLTVINEKVYRNGQYTIQLPLKGLIAASNELPAQGEGLEALWDRFLIRYFIGNIEQEFAFDQMIASVNDMEAEIPTGLSITEEQYTDWRTQISQIKIHYTVFELIHSIKRQIEKYNIQKEEVPHSTLYISDRRWKKIISLLRTSAFLNETDTIRFSDCTLLLHCLWNEIEQIPIIEQMVSSALDECISHYLCGERTLEQKLSSIREDMKSEHSLRETKDPALQIVDTFYHQIERYPVAGNLLIFASDYQSLQKDTQKLFYVQRDKYRPVNWILKVYDHVRNRNISQSAIVSLKKGTRSVFINNQEYPLACNAGYDIAYPQEASLPFEFRFQEVIDLYHNRENELKRMTDIELTYCKEHLFMDDKQRNMVKQILNRQKEMLEIYQNEIREIAYTHGLENKEY | not soluble |
